According to patent publication US20200181677A1 (REGENTS OF THE UNIVERSITY OF MINNESOTA, published 2020):
Ends that are not written are not given here.

Biological target: T1, human PKCα catalytic domain (human, UniProt P17252 336-672, limits assumed)
T1 construct: domain: catalytic domain; For activity assays the catalytic domain was isolated by TEV cleavage; also called catalytic domain of PKCα; PKC catalytic domain
Assay: time-resolved FRET (TCSPC) of eGFP/mCherry peptide-catalytic domain sensor

Mol Fraction Bound [mol fraction] | Mol Fraction Unbound [mol fraction] | Binder
0.08 | 0.92 | ASQKRPAQRH (peptide, not shown: large carriers; small tags and cut ends, also called p6) [peptide #6 (Myelin Basic Protein), alanine-substituted, in PKCα FRET sensor]
0.16 | 0.84 | RRRRAIIFI (peptide, not shown: large carriers; small tags and cut ends, also called p10) [peptide #10 (Optimized PKA Sub.), alanine-substituted, in PKCα FRET sensor]
0.15 | 0.85 | FKLKRKGAFKKFA (also: fused to PKCα catalytic domain via 10 nm ER/K linker in FRET sensor, Ala form in the FRET sensor, tethered to the PKCα catalytic domain by the 10 nm ER/K FRET linker; also called p11) [peptide #11 (Optimized PKCβ Sub.), alanine-substituted, in PKCα FRET sensor]
